# According to FireProtDB (doi:10.1016/0022-2836(92)90560-7):
# Conditions: Bacillus amyloliquefaciens, 25 °C, Urea, Fluorescence, MES/Tris 150 mM/150 mM/, NaCl 1 M, whole UniProt chain shown
protein,measurement,setting,value
"Ribonuclease wild type, P00648 (protein) MMKMEGIALKKRLSWISVCLLVLVSAAGMLFSTAAKTETSSHKAHTEAQVINTFDGVADYLQTYHKLPDNYITKSEAQALGWVASKGNLADVAPGKSIGGDIFSNREGKLPGKSGRTWREADINYTSGFRNSDRILYSSDWLIYKTTDHYQTFTKIR",denaturant m value,pH 5.8,1.95 kcal/mol/M
same,denaturant midpoint (higher = more stable),pH 5.8,5.62 M
same,unfolding free energy,pH 5.8,11 kcal/mol
same,denaturant m value,pH 9,2.11 kcal/mol/M
same,denaturant midpoint (higher = more stable),pH 9,4.8 M
same,unfolding free energy,pH 9,9.41 kcal/mol
